How the values were obtained:
[1] = biological target: T1, human folate receptor alpha (FRα) on FRα-positive cells (KB, T47D, JHOS-4) (human, UniProt P15328 25-234); assay: competition FACS on FRα-positive T47D cells; Morrison antibody fixed at 0.8 nM, detected with anti-human FITC secondary; murine parental antibodies titrated (log axis -11 to -7, unit not given; text: 0.2 to 50 nM)
T1 construct: Endogenous FRα on human tumour cell lines; also called FOLR1; folate receptor 1
Description: These eight constructs were further polished using ceramic hydroxyapatite chromatography to greater than 95% purity and subjected to further characterization. To account for the effects of overall molecule conformation or potential structural changes of the scFv arms on the binding of the biparatopic arms, the binding efficiency of each arm of the eight Morrison's constructs was assayed by a competition FACS assay. Briefly, FRα-positive T47D cells were incubated with 0.8 nM of a Morrison's antibody mixed with a corresponding murine parental antibody at a range of concentrations, generally from 50 nM to 0.2 nM. After incubation on ice for 2 hours, cells were washed from unbound antibodies, and bound Morrison's antibody was detected with secondary anti-human FITC-labeled antibody. Reduced binding of the Morrison's antibody in the presence of increasing concentration of the parental antibody indicated an effect on binding of the second set of arms.

[2] = biological target: recombinant FRα antigen (human, UniProt P15328 25-234); assay: BLI (Octet96), IgG on anti-human- or anti-murine-Fc sensors, recombinant FRα in solution, 1:1 fit
recombinant FRα antigen, sequence (P15328 25-234 limits assumed): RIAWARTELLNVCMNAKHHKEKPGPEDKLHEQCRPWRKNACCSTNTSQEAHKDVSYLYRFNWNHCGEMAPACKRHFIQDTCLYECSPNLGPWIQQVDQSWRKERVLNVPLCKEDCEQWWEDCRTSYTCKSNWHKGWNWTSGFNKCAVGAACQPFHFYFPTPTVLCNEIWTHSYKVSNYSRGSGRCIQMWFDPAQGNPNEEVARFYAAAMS
Description: Table 10 summarizes the kinetic parameters of binding of Bin1 and Bin 2 antibodies with recombinant FRα antigen. KD values were obtained via biolayer interferometry performed on Octet96 system (Fortebio) essentially according to manufacturer's recommended procedure. Briefly, anti-human- or anti-murine −Fc sensors were presoaked in 1× Kinetic Buffer (Fortebio) for 10 min and incubated with 5 μg/mL of either Bin 1 or Bin 2 IgG for 5 min. The sensors were then sequentially moved to 1× Kinetic Buffer for 5 min to determine baseline, serial dilutions of antigen for association (10 min), and 1× Kinetic Buffer for dissociation (10 min). The raw data was collected, processed and fitted to a simple 1:1 binding model using Fortebio analysis software to determine the kinetic parameters Kon and Koff.

T1 sequence (P15328 25-234 limits assumed, stated change not applied): as the sequence (P15328 25-234 limits assumed) above

B1: Mov19-G1-FR57scFv1 (Molecule-1: mov19-IgG1-FR57scFv1) (bispecific antibody)
heavy: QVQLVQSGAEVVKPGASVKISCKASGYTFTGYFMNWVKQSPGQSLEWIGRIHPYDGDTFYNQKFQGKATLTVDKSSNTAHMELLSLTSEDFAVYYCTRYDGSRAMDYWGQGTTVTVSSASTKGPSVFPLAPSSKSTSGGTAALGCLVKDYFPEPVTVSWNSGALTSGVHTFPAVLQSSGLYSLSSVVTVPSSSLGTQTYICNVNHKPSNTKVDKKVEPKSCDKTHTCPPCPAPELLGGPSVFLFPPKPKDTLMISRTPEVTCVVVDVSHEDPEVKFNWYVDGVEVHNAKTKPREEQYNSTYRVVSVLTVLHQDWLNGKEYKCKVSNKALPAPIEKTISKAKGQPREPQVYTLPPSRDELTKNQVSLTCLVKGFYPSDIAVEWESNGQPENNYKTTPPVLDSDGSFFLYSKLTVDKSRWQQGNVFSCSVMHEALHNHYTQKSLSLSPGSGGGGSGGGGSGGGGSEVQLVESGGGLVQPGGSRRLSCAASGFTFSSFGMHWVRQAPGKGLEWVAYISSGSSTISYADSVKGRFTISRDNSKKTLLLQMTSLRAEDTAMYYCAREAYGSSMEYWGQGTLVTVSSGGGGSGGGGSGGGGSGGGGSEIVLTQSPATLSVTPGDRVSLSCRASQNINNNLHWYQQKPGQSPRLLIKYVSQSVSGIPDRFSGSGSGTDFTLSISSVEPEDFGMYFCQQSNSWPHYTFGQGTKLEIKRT
light: DIVLTQSPLSLAVSLGQPAIISCKASQSVSFAGTSLMHWYHQKPGQQPRLLIYRASNLEAGVPDRFSGSGSKTDFTLTISPVEAEDAATYYCQQSREYPYTFGGGTKLEIKRTVAAPSVFIFPPSDEQLKSGTASVVCLLNNFYPREAKVQWKVDNALQSGNSQESVTEQDSKDSTYSLSSTLTLSKADYEKHKVYACEVTHQGLSSPVTKSFNRGEC
notes: Tetravalent Morrison format with the FR57 scFv on the C-terminus of the Mov19 IgG1 heavy chain; also called Mov19:FR57scFv; M9346A-FR57scFv
B1: binds [1].

B2: FR57-G1-Mov19scFv1 (Molecule 2: FR57-IgG1-mov19scFv1) (bispecific antibody)
heavy: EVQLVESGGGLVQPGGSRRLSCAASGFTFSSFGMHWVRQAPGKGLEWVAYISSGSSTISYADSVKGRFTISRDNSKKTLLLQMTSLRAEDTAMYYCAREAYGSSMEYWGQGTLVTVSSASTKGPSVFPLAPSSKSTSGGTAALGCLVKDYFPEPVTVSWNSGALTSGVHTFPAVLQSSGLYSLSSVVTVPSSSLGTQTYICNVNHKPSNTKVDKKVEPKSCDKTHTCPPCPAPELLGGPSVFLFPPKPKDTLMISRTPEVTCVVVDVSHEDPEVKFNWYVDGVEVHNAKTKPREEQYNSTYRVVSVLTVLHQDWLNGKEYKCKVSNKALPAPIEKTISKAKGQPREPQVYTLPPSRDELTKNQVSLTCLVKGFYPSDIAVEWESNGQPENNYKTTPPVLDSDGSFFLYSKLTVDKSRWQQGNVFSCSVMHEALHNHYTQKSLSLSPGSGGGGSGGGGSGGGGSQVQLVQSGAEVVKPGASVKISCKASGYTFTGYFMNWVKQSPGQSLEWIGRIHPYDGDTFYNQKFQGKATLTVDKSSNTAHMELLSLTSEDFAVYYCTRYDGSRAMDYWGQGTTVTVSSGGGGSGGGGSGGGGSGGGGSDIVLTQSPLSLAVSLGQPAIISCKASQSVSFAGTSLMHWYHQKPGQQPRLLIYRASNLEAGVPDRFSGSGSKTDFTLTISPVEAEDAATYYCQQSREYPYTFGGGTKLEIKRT
light: EIVLTQSPATLSVTPGDRVSLSCRASQNINNNLHWYQQKPGQSPRLLIKYVSQSVSGIPDRFSGSGSGTDFTLSISSVEPEDFGMYFCQQSNSWPHYTFGQGTKLEIKRTVAAPSVFIFPPSDEQLKSGTASVVCLLNNFYPREAKVQWKVDNALQSGNSQESVTEQDSKDSTYSLSSTLTLSKADYEKHKVYACEVTHQGLSSPVTKSFNRGEC
notes: Tetravalent Morrison format with the Mov19 scFv on the C-terminus of the FR57 IgG1 heavy chain; also called FR57:Mov19scFv; FR57-M9346AscFv
B2: binds [1].

B3: huMov19 (M9346A) antibody (antibody, V domains shown)
VH: QVQLVQSGAEVVKPGASVKISCKASGYTFTGYFMNWVKQSPGQSLEWIGRIHPYDGDTFYNQKFQGKATLTVDKSSNTAHMELLSLTSEDFAVYYCTRYDGSRAMDYWGQGTTVTVSS
VL: DIVLTQSPLSLAVSLGQPAIISCKASQSVSFAGTSLMHWYHQKPGQQPRLLIYRASNLEAGVPDRFSGSGSKTDFTLTISPVEAEDAATYYCQQSREYPYTFGGGTKLEIKR
notes: Humanized IgG1/kappa; also called huM9346A; huM9346A-biotin
In the case of B3, the Kd [2] is reported as 0.6 nM, the koff [2] is reported as 0.0003 s⁻¹ and the kon [2] is reported as 500000 M⁻¹ s⁻¹.

B4: FR57 antibody (antibody, V domains shown)
VH: EVQLVESGGGLVQPGGSRRLSCAASGFTFSSFGMHWVRQAPGKGLEWVAYISSGSSTISYADSVKGRFTISRDNSKKTLLLQMTSLRAEDTAMYYCAREAYGSSMEYWGQGTLVTVSS
VL: EIVLTQSPATLSVTPGDRVSLSCRASQNINNNLHWYQQKPGQSPRLLIKYVSQSVSGIPDRFSGSGSGTDFTLSISSVEPEDFGMYFCQQSNSWPHYTFGQGTKLEIK
notes: Tested as an IgG; Only the variable domains are tied to the stand-alone antibody; also called huFR57; FR1-57
Binder B4 has a Kd [2] of 1 nM, a koff [2] of 0.0004 s⁻¹ and a kon [2] of 300000 M⁻¹ s⁻¹.
